Experimental data as given in US20090118185A1 (UNIVERSITY OF ROCHESTER, published 2009).
Several values for one entry are separate records, joined by “and”; a condition that tells them apart may be missing. Equal values may be shown once.

Assays:
[1] = molecular target: T1, WT factor VIIIa (B-domainless recombinant human factor VIII activated by thrombin)
T1 chain 1: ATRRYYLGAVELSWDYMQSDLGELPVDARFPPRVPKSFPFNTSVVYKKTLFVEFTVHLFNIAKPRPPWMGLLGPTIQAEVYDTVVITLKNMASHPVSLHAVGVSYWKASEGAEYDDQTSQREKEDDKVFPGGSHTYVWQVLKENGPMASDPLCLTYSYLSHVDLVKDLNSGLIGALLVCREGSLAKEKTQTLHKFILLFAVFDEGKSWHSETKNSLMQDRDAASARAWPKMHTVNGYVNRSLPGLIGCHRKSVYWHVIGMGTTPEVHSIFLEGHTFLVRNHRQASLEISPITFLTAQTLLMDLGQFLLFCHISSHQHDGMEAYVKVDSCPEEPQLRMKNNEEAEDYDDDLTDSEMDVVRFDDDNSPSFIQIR
T1 chain 2: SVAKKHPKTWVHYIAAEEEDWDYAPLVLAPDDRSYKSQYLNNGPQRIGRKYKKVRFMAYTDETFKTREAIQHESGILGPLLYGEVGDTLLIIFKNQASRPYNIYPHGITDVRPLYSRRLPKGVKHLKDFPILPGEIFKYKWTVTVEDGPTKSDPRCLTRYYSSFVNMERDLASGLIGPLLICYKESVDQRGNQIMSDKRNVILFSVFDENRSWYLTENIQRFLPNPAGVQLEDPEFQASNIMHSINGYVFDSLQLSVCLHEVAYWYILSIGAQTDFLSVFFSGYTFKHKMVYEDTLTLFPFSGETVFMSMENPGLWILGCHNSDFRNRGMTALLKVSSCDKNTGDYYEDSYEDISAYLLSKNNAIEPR
T1 chain 3: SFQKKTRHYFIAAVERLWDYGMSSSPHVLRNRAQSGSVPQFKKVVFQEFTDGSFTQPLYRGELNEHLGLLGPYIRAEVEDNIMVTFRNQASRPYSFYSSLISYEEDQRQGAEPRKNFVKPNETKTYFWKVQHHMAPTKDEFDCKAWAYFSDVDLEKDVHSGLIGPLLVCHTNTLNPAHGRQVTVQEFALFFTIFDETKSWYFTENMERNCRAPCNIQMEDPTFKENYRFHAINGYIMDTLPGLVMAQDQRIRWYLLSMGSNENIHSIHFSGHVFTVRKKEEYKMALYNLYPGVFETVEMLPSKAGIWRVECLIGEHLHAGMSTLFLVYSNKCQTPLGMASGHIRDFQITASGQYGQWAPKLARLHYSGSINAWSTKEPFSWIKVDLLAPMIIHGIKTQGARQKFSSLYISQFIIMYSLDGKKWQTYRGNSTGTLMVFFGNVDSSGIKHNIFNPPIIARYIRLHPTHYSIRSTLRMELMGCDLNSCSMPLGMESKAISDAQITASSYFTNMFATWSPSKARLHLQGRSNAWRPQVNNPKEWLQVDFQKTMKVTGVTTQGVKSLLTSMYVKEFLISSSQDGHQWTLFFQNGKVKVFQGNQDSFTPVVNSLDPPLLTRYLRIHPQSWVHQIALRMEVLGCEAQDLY

[2] = molecular target: T2, 336(P4-P2)562 factor VIIIa mutant
T2 chain 1: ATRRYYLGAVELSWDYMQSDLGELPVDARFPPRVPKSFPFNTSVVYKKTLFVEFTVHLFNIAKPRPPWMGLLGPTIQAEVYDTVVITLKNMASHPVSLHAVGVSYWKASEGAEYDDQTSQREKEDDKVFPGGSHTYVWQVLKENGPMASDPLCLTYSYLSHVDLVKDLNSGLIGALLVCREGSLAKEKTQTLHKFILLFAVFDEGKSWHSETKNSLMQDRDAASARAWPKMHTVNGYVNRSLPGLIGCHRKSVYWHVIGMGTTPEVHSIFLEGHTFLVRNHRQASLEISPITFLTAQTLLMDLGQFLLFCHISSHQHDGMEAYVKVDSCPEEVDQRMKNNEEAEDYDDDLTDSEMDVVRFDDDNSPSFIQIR
T2 chain 2: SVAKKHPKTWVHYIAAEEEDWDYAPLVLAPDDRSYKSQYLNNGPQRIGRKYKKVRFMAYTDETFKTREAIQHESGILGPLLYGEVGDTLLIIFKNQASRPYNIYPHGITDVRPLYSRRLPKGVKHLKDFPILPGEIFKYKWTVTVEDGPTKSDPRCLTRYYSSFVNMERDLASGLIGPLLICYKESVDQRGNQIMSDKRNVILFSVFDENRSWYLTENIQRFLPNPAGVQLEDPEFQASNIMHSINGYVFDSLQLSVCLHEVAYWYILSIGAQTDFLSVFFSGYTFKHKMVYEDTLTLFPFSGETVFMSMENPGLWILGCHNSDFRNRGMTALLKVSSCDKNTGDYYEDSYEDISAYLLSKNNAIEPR
T2 chain 3: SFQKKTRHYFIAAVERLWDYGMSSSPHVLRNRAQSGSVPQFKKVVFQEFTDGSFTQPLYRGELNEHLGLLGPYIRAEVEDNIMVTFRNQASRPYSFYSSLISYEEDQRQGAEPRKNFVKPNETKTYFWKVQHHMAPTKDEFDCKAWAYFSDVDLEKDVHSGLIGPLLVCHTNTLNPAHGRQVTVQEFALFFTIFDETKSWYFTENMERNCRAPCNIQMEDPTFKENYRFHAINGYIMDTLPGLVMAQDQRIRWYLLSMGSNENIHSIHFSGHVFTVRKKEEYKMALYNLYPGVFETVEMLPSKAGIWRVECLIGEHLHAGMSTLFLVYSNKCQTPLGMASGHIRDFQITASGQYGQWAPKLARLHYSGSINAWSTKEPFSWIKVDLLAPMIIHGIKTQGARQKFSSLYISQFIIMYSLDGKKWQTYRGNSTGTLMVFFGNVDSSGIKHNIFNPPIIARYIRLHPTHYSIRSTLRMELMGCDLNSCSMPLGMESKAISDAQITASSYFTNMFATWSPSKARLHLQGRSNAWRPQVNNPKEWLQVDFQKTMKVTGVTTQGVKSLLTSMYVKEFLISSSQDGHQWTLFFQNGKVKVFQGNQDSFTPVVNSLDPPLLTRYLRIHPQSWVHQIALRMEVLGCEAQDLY

[3] = molecular target: T3, 562(P4-P3′)336 factor VIIIa mutant
T3 chain 1: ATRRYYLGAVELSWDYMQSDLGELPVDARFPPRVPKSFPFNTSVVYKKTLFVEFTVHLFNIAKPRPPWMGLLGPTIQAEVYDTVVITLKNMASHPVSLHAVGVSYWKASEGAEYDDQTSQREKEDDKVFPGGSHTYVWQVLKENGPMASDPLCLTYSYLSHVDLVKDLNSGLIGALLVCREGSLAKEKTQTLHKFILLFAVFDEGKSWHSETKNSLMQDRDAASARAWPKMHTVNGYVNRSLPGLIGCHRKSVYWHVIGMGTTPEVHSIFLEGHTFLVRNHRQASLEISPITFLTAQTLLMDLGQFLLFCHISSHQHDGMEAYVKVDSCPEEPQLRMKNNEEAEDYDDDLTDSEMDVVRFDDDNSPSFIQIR
T3 chain 2: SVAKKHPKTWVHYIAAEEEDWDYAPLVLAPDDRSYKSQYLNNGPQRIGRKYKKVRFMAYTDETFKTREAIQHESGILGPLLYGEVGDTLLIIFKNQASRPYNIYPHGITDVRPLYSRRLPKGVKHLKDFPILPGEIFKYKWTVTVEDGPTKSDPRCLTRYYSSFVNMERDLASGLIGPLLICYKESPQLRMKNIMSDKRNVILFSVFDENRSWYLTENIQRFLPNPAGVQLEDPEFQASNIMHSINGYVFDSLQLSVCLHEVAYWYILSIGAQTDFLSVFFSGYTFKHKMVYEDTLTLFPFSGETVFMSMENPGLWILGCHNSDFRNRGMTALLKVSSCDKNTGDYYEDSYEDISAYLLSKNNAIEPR
T3 chain 3: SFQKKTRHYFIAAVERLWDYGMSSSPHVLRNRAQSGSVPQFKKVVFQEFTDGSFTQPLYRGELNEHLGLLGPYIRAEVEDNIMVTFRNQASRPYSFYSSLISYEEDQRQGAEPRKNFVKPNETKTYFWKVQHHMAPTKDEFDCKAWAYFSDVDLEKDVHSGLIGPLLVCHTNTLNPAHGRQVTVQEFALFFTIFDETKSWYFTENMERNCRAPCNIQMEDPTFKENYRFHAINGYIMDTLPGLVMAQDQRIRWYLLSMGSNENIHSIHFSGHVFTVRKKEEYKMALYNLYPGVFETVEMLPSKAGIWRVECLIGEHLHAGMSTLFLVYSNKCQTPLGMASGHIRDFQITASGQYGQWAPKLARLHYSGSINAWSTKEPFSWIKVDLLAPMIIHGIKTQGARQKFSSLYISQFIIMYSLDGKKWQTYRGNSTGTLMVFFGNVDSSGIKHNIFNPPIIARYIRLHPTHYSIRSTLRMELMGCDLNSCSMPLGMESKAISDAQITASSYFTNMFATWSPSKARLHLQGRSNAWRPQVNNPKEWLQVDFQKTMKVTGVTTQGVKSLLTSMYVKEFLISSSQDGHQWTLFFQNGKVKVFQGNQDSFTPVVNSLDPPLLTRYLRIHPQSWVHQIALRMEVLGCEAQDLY

[4] = molecular target: T4, 336(P4-P3′)562 factor VIIIa mutant
T4 chain 1: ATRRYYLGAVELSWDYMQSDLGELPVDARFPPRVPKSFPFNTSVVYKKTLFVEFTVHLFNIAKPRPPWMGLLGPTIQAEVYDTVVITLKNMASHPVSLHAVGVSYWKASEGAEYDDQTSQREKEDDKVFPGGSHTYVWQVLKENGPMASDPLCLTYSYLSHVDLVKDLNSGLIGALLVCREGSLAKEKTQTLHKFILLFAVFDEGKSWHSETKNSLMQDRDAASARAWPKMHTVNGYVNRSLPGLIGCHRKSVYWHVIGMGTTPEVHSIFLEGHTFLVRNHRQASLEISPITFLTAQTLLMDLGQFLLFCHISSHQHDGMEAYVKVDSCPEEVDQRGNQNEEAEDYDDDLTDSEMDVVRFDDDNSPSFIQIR
T4 chain 2: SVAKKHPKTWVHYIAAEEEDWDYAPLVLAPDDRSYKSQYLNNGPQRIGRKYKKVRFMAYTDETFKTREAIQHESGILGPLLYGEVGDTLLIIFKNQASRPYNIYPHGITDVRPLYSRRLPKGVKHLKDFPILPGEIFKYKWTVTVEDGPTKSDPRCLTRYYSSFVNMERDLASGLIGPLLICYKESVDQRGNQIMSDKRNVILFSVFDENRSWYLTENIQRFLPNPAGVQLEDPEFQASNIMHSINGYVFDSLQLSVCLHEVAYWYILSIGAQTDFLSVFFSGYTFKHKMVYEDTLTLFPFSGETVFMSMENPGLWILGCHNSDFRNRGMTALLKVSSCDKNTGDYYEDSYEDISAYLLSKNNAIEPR
T4 chain 3: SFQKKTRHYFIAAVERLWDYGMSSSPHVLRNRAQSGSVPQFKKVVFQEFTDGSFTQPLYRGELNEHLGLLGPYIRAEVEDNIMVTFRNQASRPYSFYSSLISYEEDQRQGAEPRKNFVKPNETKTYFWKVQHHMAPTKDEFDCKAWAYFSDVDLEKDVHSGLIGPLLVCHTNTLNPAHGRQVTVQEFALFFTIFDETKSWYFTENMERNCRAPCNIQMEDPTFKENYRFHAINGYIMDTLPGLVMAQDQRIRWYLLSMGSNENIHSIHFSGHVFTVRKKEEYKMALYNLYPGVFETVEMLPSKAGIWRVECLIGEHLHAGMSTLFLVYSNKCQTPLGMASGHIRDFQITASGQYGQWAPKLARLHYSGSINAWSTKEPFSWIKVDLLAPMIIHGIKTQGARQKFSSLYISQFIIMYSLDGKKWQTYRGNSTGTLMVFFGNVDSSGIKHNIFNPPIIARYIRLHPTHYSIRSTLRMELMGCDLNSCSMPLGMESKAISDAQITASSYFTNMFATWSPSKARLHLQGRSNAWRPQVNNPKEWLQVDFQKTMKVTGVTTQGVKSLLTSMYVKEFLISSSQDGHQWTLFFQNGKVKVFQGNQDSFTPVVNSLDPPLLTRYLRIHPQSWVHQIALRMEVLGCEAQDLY

B1: human activated protein C (protein)
chain 1: ANSFLEELRHSSLERECIEEICDFEEAKEIFQNVDDTLAFWSKHVDGDQCLVLPLEHPCASLCCGHGTCIDGIGSFSCDCRSGWEGRFCQREVSFLNCSLDNGGCTHYCLEEVGWRRCSCAPGYKLGDDLLQCHPAVKFPCGRPWKRMEKKRSHL
chain 2: LIDGKMTRRGDSPWQVVLLDSKKKLACGAVLIHPSWVLTAAHCMDESKKLLVRLGEYDLRRWEKWELDLDIKEVFVHPNYSKSTTDNDIALLHLAQPATLSQTIVPICLPDSGLAERELNQAGQETLVTGWGYHSSREKEAKRNRTFVLNFIKIPVVPHNECSEVMSNMVSENMLCAGILGDRQDACEGDSGGPMVASFHGTWFLVGLVSWGEGCGLLHNYGVYTKVSRYLDWIHGHIRDKEAPQKSWAP
[1]
  A1 Cleavage (nM A1/min/nM APC) (nM A1/min/nM APC): 8.5 and 9.5
  A2 Cleavage (nM A2/min/nM APC) (nM A2/min/nM APC): 0.5 and 0.2
[2]
  A1 Cleavage (nM A1/min/nM APC) (nM A1/min/nM APC): 0.6
  A2 Cleavage (nM A2/min/nM APC) (nM A2/min/nM APC): 0.2
  fold reduction of cleavage rate at the A1 site compared with WT: reduced ˜16 and ˜9-fold, respectively, as compared with the WT protein
[3]
  A1 Cleavage (nM A1/min/nM APC) (nM A1/min/nM APC): 7.3
  A2 Cleavage (nM A2/min/nM APC) (nM A2/min/nM APC): 1.9
  fold increase of A2 subunit cleavage rate: the rate of A2 subunit cleavage for 562(P4-P3′)336 mutant was increased 4 fold
[4]
  A1 Cleavage (nM A1/min/nM APC) (nM A1/min/nM APC): 0.1
  A2 Cleavage (nM A2/min/nM APC) (nM A2/min/nM APC): 0.05
  fold reduction of A1 subunit cleavage rate relative to WT: reduced by ˜100-fold relative to WT
